Source: PMC8800109 (iScience, 2022)
Read-outs that look alike come from different tables or passages of the source. Blank lines part the entries; values can stand above or below the molecule they belong to.

How the values were obtained:
[1] = target: briakinumab (human); assay: MST
[2] = target: briakinumab-YTE (human); assay: MST
[3] = target: briakinumab-YTE/IL12 (human) (UniProt P29460); assay: MST
[4] = target: briakinumab/IL12 (human) (UniProt P29460); assay: MST
[5] = target: ustekinumab-YTE/IL12 (human) (UniProt P29460); assay: MST
[6] = target: briakinumab (human); assay: MST; remark: listed apart in the source
[7] = target: briakinumab-YTE (human); assay: MST; remark: listed apart in the source
[8] = target: briakinumab-YTE/IL12 (human) (UniProt P29460); assay: MST; remark: listed apart in the source
[9] = target: briakinumab/IL12 (human) (UniProt P29460); assay: MST; remark: listed apart in the source
[10] = target: ustekinumab (human); assay: MST
[11] = target: ustekinumab-YTE (human); assay: MST
[12] = target: ustekinumab-YTE/IL12 (human) (UniProt P29460); assay: MST; remark: listed apart in the source
[13] = target: ustekinumab/IL12 (human) (UniProt P29460); assay: MST
[14] = target: briakinumab (human); assay: SPR
[15] = target: briakinumab-YTE (human); assay: SPR
[16] = target: ustekinumab (human); assay: SPR
[17] = target: ustekinumab-YTE (human); assay: SPR
[18] = target: recombinant form of hFcRn immobilized on the analytical FcRn column (UniProt P55899); assay: analytical hFcRn affinity chromatography
[19] = target: recombinant human IL-12 (Homo sapiens, UniProt P29460;P29459); assay: ELISA

Molecule: truncated monomeric His-tagged hFcRn (from UniProt P55899 24-365; P61769 21-119) (receptor)
Kd [1]: > 25000 nM
Kd [2]: > 20000 nM
Kd [3]: > 4000 nM
Kd [4]: > 10000 nM
Kd [5]: > 20000 nM
Kd [6]: 599 nM
Kd [7]: 79 nM
Kd [8]: 98 nM
Kd [9]: 533 nM
Kd [10]: 497 nM
Kd [11]: 100 nM
Kd [12]: 78 nM
Kd [13]: 1000 nM
Kd [14]: 545 nM
Kd [15]: 64 nM
Kd [16]: 653 nM
Kd [17]: 95.5 nM

B1: briakinumab (antibody, V domains shown)
VH: QVQLVESGGGVVQPGRSLRLSCAASGFTFSSYGMHWVRQAPGKGLEWVAFIRYDGSNKYYADSVKGRFTISRDNSKNTLYLQMNSLRAEDTAVYYCKTHGSHDNWGQGTMVTVSS
VL: QSVLTQPPSVSGAPGQRVTISCSGSRSNIGSNTVKWYQQLPGTAPKLLIYYNDQRPSGVPDRFSGSKSGTSASLAITGLQAEDEADYYCQSYDRYTHPALLFGTGTKVTVL
binding result [19]: binds

B2: briakinumab-YTE (antibody, V domains shown)
VH: QVQLVESGGGVVQPGRSLRLSCAASGFTFSSYGMHWVRQAPGKGLEWVAFIRYDGSNKYYADSVKGRFTISRDNSKNTLYLQMNSLRAEDTAVYYCKTHGSHDNWGQGTMVTVSS
VL: QSVLTQPPSVSGAPGQRVTISCSGSRSNIGSNTVKWYQQLPGTAPKLLIYYNDQRPSGVPDRFSGSKSGTSASLAITGLQAEDEADYYCQSYDRYTHPALLFGTGTKVTVL
binding result [19]: binds

The remaining lines, values ahead:

elution pH from the hFcRn column [18]: 7.9 pH
Molecule: ustekinumab-YTE (antibody)

elution pH from the hFcRn column [18]: 7.2 pH
Molecule: ustekinumab (antibody)
